In PMC8100514:

Target: β-tubulin, endogenous in HeLa cells (human (endogenous in HeLa)) (UniProt P07437)
Assay: native gel or EMSA; soluble native extracts of HeLa cells treated with 5 uM colchicine for 60 min (30 ug) on 6% non-denaturing PAGE, western blot with anti-TBCA; level of the complex relative to control cells (100%)

Sequence of UniProt P07437 (P07437 whole entry): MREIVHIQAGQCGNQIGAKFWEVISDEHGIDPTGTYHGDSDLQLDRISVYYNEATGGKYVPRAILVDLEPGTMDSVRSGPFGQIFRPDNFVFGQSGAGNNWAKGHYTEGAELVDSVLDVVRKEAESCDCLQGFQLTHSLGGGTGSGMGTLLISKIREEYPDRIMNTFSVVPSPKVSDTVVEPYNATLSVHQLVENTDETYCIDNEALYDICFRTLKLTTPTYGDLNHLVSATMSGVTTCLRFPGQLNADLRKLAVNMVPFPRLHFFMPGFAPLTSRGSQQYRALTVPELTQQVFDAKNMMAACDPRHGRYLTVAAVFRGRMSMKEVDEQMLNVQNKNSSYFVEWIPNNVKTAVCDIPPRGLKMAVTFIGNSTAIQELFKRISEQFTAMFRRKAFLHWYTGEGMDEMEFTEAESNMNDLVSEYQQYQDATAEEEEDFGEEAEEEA

B1: tubulin cofactor A (TBCA), endogenous in HeLa cells (natural protein)
chain: MADPRVRQIKIKTGVVKRLVKEKVMYEKEAKQQEEKIEKMRAEDGENYDIKKQAEILQESRMMIPDCQRRLEAAYLDLQRILENEKDLEEAEEYKEARLVLDSVKLEA
level of the TBCA/β-tubulin complex, percent of control cells: 18%
